Experimental data as given in patent US20160264649A1.

Legend:
Assay in all cases: cell-based or functional assay
[1] = biological target: HIV-1 Env of isolate 93TH305 (subtype B) (HIV-1)
[2] = biological target: HIV-1 Env of isolate 97ZA012 (subtype C) (HIV-1)
[3] = biological target: HIV-1 Env of isolate 92 BR 020 (subtype B) (HIV-1)
[4] = biological target: HIV-1 Env of isolate MG RM-C-020 (subtype C) (HIV-1)
[5] = biological target: HIV-1 Env of isolate CAAN.A2 (subtype B) (HIV-1)
[6] = biological target: HIV-1 Env of isolate APV_13 (subtype B) (HIV-1)
[7] = biological target: HIV-1 Env of isolate 6535.3 (subtype B) (HIV-1)
[8] = biological target: HIV-1 Env of isolate 93MW959 (subtype C) (HIV-1)
[9] = biological target: HIV-1 Env of isolate MG RM-C-019 (subtype C) (HIV-1)
[10] = biological target: HIV-1 Env of isolate PVO.4 (subtype B) (HIV-1)
[11] = biological target: HIV-1 Env of isolate TRJ04551.58 (subtype B) (HIV-1)
[12] = biological target: HIV-1 Env of isolate SF162 (subtype B) (HIV-1) (UniProt P19550)
[13] = biological target: HIV-1 Env of isolate MGRM-Chronic-B-003 (subtype B) (HIV-1)
[14] = biological target: HIV-1 Env of isolate MG RM-C-028 (subtype C) (HIV-1)
[15] = biological target: HIV-1 Env of isolate SC422661.8 (subtype B) (HIV-1)
[16] = biological target: HIV-1 Env of isolate APV_17 (subtype B) (HIV-1)
[17] = biological target: HIV-1 Env of isolate MGRM-Chronic-B-018 (subtype B) (HIV-1)
[18] = biological target: HIV-1 Env of isolate MGRM-Chronic-B-010 (subtype B) (HIV-1)
[19] = biological target: HIV-1 Env of isolate MG RM-C-026 (subtype C) (HIV-1)
[20] = biological target: HIV-1 Env of isolate NL43 (subtype B) (HIV-1)
[21] = biological target: HIV-1 Env of isolate 93IN905 (subtype C) (HIV-1)
[22] = biological target: HIV-1 Env of isolate MGRM-Chronic-B-017 (subtype B) (HIV-1)
[23] = biological target: HIV-1 Env of isolate THR0.18 (subtype B) (HIV-1)
[24] = biological target: HIV-1 Env of isolate APV_6 (subtype B) (HIV-1)
[25] = biological target: HIV-1 Env of isolate MGRM-Chronic-B-011 (subtype B) (HIV-1)
[26] = biological target: HIV-1 Env of isolate MGRM-Chronic-B-012 (subtype B) (HIV-1)
[27] = biological target: HIV-1 Env of isolate MG RM-C-023 (subtype C) (HIV-1)
[28] = biological target: HIV-1 Env of isolate MGRM-Chronic-B-008 (subtype B) (HIV-1)
[29] = biological target: HIV-1 Env of isolate MGRM-Chronic-B-001 (subtype B) (HIV-1)
[30] = biological target: HIV-1 Env of isolate QH0692.42 (subtype B) (HIV-1)
[31] = biological target: HIV-1 92RW008 Env (HIV-1)
[32] = biological target: HIV-1 Env of isolate MGRM-Chronic-B-023 (subtype B) (HIV-1)
[33] = biological target: HIV-1 Env of isolate MGRM-Chronic-B-024 (subtype B) (HIV-1)
[34] = biological target: HIV-1 Env of isolate MG RM-C-022 (subtype C) (HIV-1)
[35] = biological target: HIV-1 Env of isolate MGRM-Chronic-B-004 (subtype B) (HIV-1)
[36] = biological target: HIV-1 Env of isolate MGRM-Chronic-B-020 (subtype B) (HIV-1)
[37] = biological target: HIV-1 Env of isolate JRFL (subtype B) (HIV-1)
[38] = biological target: HIV-1 Env of isolate MG RM-C-025 (subtype C) (HIV-1)
[39] = biological target: HIV-1 Env of isolate TRO.11 (subtype B) (HIV-1)
[40] = biological target: HIV-1 Env of isolate MG RM-C-027 (subtype C) (HIV-1)
[41] = biological target: HIV-1 Env of isolate MGRM-Chronic-B-002 (subtype B) (HIV-1)
[42] = biological target: HIV-1 Env of isolate MG RM-C-024 (subtype C) (HIV-1)
[43] = biological target: HIV-1 Env of isolate JRCSF (subtype B) (HIV-1) (UniProt P20871)
[44] = biological target: HIV-1 Env of isolate 98IN022 (subtype C) (HIV-1)
[45] = biological target: HIV-1 Env of isolate VLGCB3 (subtype B) (HIV-1)

Chain of 4993_K13 (PGT-141) (antibody) (VH): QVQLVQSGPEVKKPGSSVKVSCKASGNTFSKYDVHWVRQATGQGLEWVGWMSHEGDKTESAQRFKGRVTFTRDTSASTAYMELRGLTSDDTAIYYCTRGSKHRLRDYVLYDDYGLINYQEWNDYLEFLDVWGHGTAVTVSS
Chain of 4993_K13 (PGT-141) (antibody) (VL): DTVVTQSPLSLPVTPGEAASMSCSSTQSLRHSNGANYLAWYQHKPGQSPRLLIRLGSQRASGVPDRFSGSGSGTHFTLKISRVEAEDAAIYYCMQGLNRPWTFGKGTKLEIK
Chain of 4995_P16 (PGT-145) (antibody) (VH): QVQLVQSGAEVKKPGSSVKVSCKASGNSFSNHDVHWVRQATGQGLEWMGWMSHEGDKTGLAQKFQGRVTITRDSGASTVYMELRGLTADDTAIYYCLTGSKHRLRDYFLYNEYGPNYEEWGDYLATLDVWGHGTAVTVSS
Chain of 4995_P16 (PGT-145) (antibody) (VL): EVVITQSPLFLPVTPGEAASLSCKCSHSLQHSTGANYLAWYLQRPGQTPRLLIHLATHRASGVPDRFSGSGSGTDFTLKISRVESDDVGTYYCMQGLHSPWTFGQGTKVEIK
Chain of 4995_E20 (PGT-142) (antibody) (VH): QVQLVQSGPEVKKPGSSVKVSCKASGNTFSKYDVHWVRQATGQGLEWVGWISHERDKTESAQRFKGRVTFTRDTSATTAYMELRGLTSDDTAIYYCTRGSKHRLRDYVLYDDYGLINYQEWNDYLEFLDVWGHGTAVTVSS

Substance: 4993_K13 (PGT-141) (antibody)
- IC50 [1]: > 50 µg/mL
- IC50 [2]: > 50 µg/mL
- IC50 [3]: 20.3 µg/mL
- IC50 [4]: 1.34 µg/mL
- IC50 [5]: > 50 µg/mL
- IC50 [6]: > 50 µg/mL
- IC50 [7]: > 50 µg/mL
- IC50 [8]: 0.003 µg/mL
- IC50 [9]: 0.008 µg/mL
- IC50 [10]: 0.113 µg/mL
- IC50 [11]: > 50 µg/mL
- IC50 [12]: > 50 µg/mL
- IC50 [13]: 0.4 µg/mL
- IC50 [14]: 13.8 µg/mL
- IC50 [15]: 1.66 µg/mL
- IC50 [16]: 0.59 µg/mL
- IC50 [17]: 0.572 µg/mL
- IC50 [18]: > 50 µg/mL
- IC50 [19]: > 50 µg/mL
- IC50 [20]: > 50 µg/mL
- IC50 [21]: 0.001 µg/mL
- IC50 [22]: 0.147 µg/mL
- IC50 [23]: 0.007 µg/mL
- IC50 [24]: 14.2 µg/mL
- IC50 [25]: 2.24 µg/mL
- IC50 [26]: > 50 µg/mL
- IC50 [27]: 0.153 µg/mL
- IC50 [28]: > 50 µg/mL
- IC50 [29]: > 50 µg/mL
- IC50 [30]: > 50 µg/mL
- IC50 [31]: 0.579 µg/mL
- IC50 [32]: 0.318 µg/mL
- IC50 [33]: 0.011 µg/mL
- IC50 [34]: 0.381 µg/mL
- IC50 [35]: 0.586 µg/mL
- IC50 [36]: > 50 µg/mL
- IC50 [37]: > 50 µg/mL
- IC50 [38]: 0.247 µg/mL
- IC50 [39]: 0.383 µg/mL
- IC50 [40]: 3.27 µg/mL
- IC50 [41]: > 50 µg/mL
- IC50 [42]: 0.101 µg/mL
- IC50 [43]: 0.009 µg/mL
- IC50 [44]: 0.001 µg/mL
- IC50 [45]: > 50 µg/mL

Substance: 4995_E20 (PGT-142) (antibody)
- IC50 [1]: 5.86 µg/mL
- IC50 [2]: > 50 µg/mL
- IC50 [3]: 15.1 µg/mL
- IC50 [4]: 0.446 µg/mL
- IC50 [5]: > 50 µg/mL
- IC50 [6]: > 50 µg/mL
- IC50 [7]: > 50 µg/mL
- IC50 [8]: 0.001 µg/mL
- IC50 [9]: 0.003 µg/mL
- IC50 [10]: 0.066 µg/mL
- IC50 [11]: > 50 µg/mL
- IC50 [12]: > 50 µg/mL
- IC50 [13]: 0.484 µg/mL
- IC50 [14]: 2.12 µg/mL
- IC50 [15]: 3.15 µg/mL
- IC50 [16]: 0.628 µg/mL
- IC50 [17]: 0.323 µg/mL
- IC50 [18]: > 50 µg/mL
- IC50 [19]: > 50 µg/mL
- IC50 [20]: > 50 µg/mL
- IC50 [21]: 0.001 µg/mL
- IC50 [22]: 0.076 µg/mL
- IC50 [23]: 0.012 µg/mL
- IC50 [24]: 4.72 µg/mL
- IC50 [25]: 0.994 µg/mL
- IC50 [26]: > 50 µg/mL
- IC50 [27]: 0.087 µg/mL
- IC50 [28]: > 50 µg/mL
- IC50 [29]: > 50 µg/mL
- IC50 [30]: > 50 µg/mL
- IC50 [31]: 0.447 µg/mL
- IC50 [32]: 0.486 µg/mL
- IC50 [33]: 0.005 µg/mL
- IC50 [34]: 0.086 µg/mL
- IC50 [35]: 0.172 µg/mL
- IC50 [36]: > 50 µg/mL
- IC50 [37]: > 50 µg/mL
- IC50 [38]: 0.183 µg/mL
- IC50 [39]: 0.27 µg/mL
- IC50 [40]: 0.792 µg/mL
- IC50 [41]: > 50 µg/mL
- IC50 [42]: 0.03 µg/mL
- IC50 [43]: 0.01 µg/mL
- IC50 [44]: 0.001 µg/mL
- IC50 [45]: > 50 µg/mL

Substance: 4995_P16 (PGT-145) (antibody)
- IC50 [1]: 0.032 µg/mL
- IC50 [2]: 0.915 µg/mL
- IC50 [3]: 1.05 µg/mL
- IC50 [4]: 0.712 µg/mL
- IC50 [5]: 7.08 µg/mL
- IC50 [6]: 0.337 µg/mL
- IC50 [7]: > 50 µg/mL
- IC50 [8]: 1.2 µg/mL
- IC50 [9]: 0.005 µg/mL
- IC50 [10]: 0.299 µg/mL
- IC50 [11]: > 50 µg/mL
- IC50 [12]: > 50 µg/mL
- IC50 [13]: 0.045 µg/mL
- IC50 [14]: 0.099 µg/mL
- IC50 [15]: 0.079 µg/mL
- IC50 [16]: 0.488 µg/mL
- IC50 [17]: 0.013 µg/mL
- IC50 [18]: > 50 µg/mL
- IC50 [19]: > 50 µg/mL
- IC50 [20]: 0.006 µg/mL
- IC50 [21]: 0.002 µg/mL
- IC50 [22]: 0.054 µg/mL
- IC50 [23]: 0.013 µg/mL
- IC50 [24]: 0.104 µg/mL
- IC50 [25]: 0.206 µg/mL
- IC50 [26]: 9.06 µg/mL
- IC50 [27]: 0.201 µg/mL
- IC50 [28]: 1.9 µg/mL
- IC50 [29]: 3.22 µg/mL
- IC50 [30]: > 50 µg/mL
- IC50 [31]: 0.4 µg/mL
- IC50 [32]: 0.009 µg/mL
- IC50 [33]: 0.018 µg/mL
- IC50 [34]: 0.492 µg/mL
- IC50 [35]: 0.023 µg/mL
- IC50 [36]: > 50 µg/mL
- IC50 [37]: 30.4 µg/mL
- IC50 [38]: 0.044 µg/mL
- IC50 [39]: 0.044 µg/mL
- IC50 [40]: 0.095 µg/mL
- IC50 [41]: 3.67 µg/mL
- IC50 [42]: 0.174 µg/mL
- IC50 [43]: 0.002 µg/mL
- IC50 [44]: 0.005 µg/mL
- IC50 [45]: > 50 µg/mL
